From article PMC3099712 (The Journal of Biological Chemistry, 2011) come the findings set out here.

Data set [1] deals with the molecule itself. The experiment in a line: SDS-PAGE under reducing and non-reducing conditions.
Data set [2] has as its target T1, mouse IGFLR1-Fc (extracellular domain of mouse IGFLR1 fused to human IgG1 Fc) (mouse, UniProt Q3U4N7 21-158).
T1 sequence (looked up): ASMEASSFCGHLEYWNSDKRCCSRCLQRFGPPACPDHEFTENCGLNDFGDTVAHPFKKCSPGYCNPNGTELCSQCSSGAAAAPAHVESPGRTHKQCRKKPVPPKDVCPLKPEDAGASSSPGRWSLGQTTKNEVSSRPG
The experiment in a line: SPR.

B1: FLAG-mIGFL (mouse insulin growth factor-like protein) (ligand)
chain: ARKISTFSGPGSWPCNPKCDGRTYNPSEECCVHDTILPFKRINLCGPSCTYRPCFELCCPESYSPKKKFIVKLKVHGERSHCSSSPISRNCKSNKIFHGEDIEDNQLSLRKKSGDQP
With B1, in data set [1], the binding result is on record as “binds”. In data set [2], this molecule came in with a Kd of 0.15 nM, a koff of 0.000157 s⁻¹ and an on-rate (kon) of 1.02e+06 M⁻¹ s⁻¹.

B2: FLAG-IGFL1 (human insulin growth factor-like family member 1) (ligand)
chain: GAPVAPMTPYLMLCQPHKRCGDKFYDPLQHCCYDDAVVPLARTQTCGNCTFRVCFEQCCPWTFMVKLINQNCDSARTSDDRLCRSVS
On to B2, for which the binding result in data set [1] is reported as “binds”.
